Results reported in PMC10253835, “Plakophilin-3 Binds the Membrane and Filamentous Actin without Bundling F-Actin” (International Journal of Molecular Sciences, 2023).

Biological target: the molecule itself
Experiment: SEC; purified plakophilin-3 on Superdex S-200 10/300; methods give 20 mM Tris pH 7.5, 150 mM NaCl, 1 mM dithiothreitol; dimer and monomer peaks pooled and reloaded; more dimer at higher concentration and lower reducing conditions, mainly monomer with dithiothreitol or TCEP

B1: plakophilin-3 (residues 305-797) (domain or fragment, human, UniProt Q9Y446 305-797, looked up)
chain: SHRTLQRLSSGFDDIDLPSAVKYLMASDPNLQVLGAAYIQHKCYSDAAAKKQARSLQAVPRLVKLFNHANQEVQRHATGAMRNLIYDNADNKLALVEENGIFELLRTLREQDDELRKNVTGILWNLSSSDHLKDRLARDTLEQLTDLVLSPLSGAGGPPLIQQNASEAEIFYNATGFLRNLSSASQATRQKMRECHGLVDALVTSINHALDAGKCEDKSVENAVCVLRNLSYRLYDEMPPSALQRLEGRGRRDLAGAPPGEVVGCFTPQSRRLRELPLAADALTFAEVSKDPKGLEWLWSPQIVGLYNRLLQRCELNRHTTEAAAGALQNITAGDRRWAGVLSRLALEQERILNPLLDRVRTADHHQLRSLTGLIRNLSRNARNKDEMSTKVVSHLIEKLPGSVGEKSPPAEVLVNIIAVLNNLVVASPIAARDLLYFDGLRKLIFIKKKRDSPDSEKSSRAASSLLANLWQYNKLHRDFRAKGYRKEDFLGP
notes: pET28 construct with eight histidines followed by an HRV-3C site at the amino terminus; no cleavage step is described; The protein is found as monomer and as homodimer; also called armadillo repeat motif domain of plakophilin-3; Pkp3; source: E. coli BL21(DE3) Rosetta2, purified (Ni-nitriloacetic acid column, Superdex S-200 size exclusion)
stoichiometry N: 2
